Assay: soluble on expression in E. coli; label from the status in PepcDB or PDB records

Sequence | soluble on expression in E. coli
MSLPIDTWFPLAVSRNLLTPDPALHERMVAQIFQWRGDLWANPSGESAWTGDMNGVALVHEHPDFAWLRSQVEVEALQFCQALGFQTEALQLWIQRSWPVVSEPGQSIGAHHHPNAHLSAIYYLNGSGDPELGALRIFDDRPRNELVPGLAVGYGEVIAEEAALNQAWIDYPPQAGLLLMFPASTRHGVTENLTDLTRLSVSFDLYLTARSATELAPEYLAPPVNRWSPIQLREGHHHHHH | soluble
MSLPKPQLRIIAGDFEDPRIIALLAHHFATMRSTGPEESCHVMPLGTMRQADLDFFAAWDGDALAGFGAVKQLGDGHGEIKSMHTAAAYRGRGVGQAVLDHLSTHARALGLQRLSLETGAGDFFVPARAMYARNGFQTCDPFGDYKPDPNSVFMTRMLEGHHHHHH | not soluble
MSLPLIIPENIPAYELLKEHAFIMGLRRAKHQDIRPQEILIVNLMPKKIETENQILSLLANSPLQVNITLLATTSYVGKNTPFTHLEKFYKGLEEVKKHKFDGAIVTGAPVEQMDFEKVAYWEELLEIFDFLKQNVTSSMYICWGAMAALKYFYGVDKISLDKKIFGVYKHDKVSPDLLLTNLDEKVLMPHSRHSSMDEEQILALQKQGKLKILLRNKKIGSALLRDEKNIFILGHLEYFKETLHQEYVRDNFIQKAKNYYDKKGNIKYNWRSNANTIFANWLNYDVYQSTPFVLEGHHHHHH | soluble
MSLPRGLELLIAQTILQGFDAQYGRFLEVTSGAQQRFEQADWHAVQQAMKNRIHLYDHHVGLVVEQLRCITNGQSTDAAFLLRVKEHYTRLLPDYPRFEIAESFFNSVYCRLFDHRSLTPERLFIFSSQPERRFRTIPRPLAKDFHPDHGWESLLMRVISDLPLRLRWQNKSRDIHYIIRHLTETLGTDNLAESHLQVANELFYRNKAAWLVGKLITPSGTLPFLLPIHQTDDGELFIDTCLTTTAEASIVFGFARSYFMVYAPLPAALVEWLREILPGKTTAELYMAIGCQKHAKTESYREYLVYLQGCNEQFIEAPGIRGMVMLVFTLPGFDRVFKVIKDRFAPQKEMSAAHVRACYQLVKEHDRVGRMADTQEFENFVLEKRHISPALMELLLQEAAEKITDLGEQIVIRHLYIERRMVPLNIWLEQVEGQQLRDAIEEYGNAIRQLAAANIFPGDMLFKNFGVTRHGRVVFYDYDEICYMTEVNFRDIPPPRYPEDELASEPWYSVSPGDVFPEEFRHWLCADPRIGPLFEEMHADLFRADYWRALQNRIREGHVEDVYAYRRRQRFSVRYGEMLFEGHHHHHH | not soluble
MSLQNRIMITGAGSGLGREMALRWAREGWRLALSDINDAGLQETLALVREAGGDGFVQRCDVRDYSQLTAFAQTCEERFGGMDIIVNNAGVASGGFFNELSLEDWDWQIAINLMGVVKGCKAFLPMLQASKGKIINIASMAALMQAPAMSNYNVAKAGVVALSESLLVELRDQDVGVHVVCPSFFQTNLLDSFRGPTPAMKAQIGRLLEKSPITATDIADYIFTQVAEGEFMILPHEEGRLAWDMKRQQPQAMYDEMTVMCAKMRAKAQKGEGHHHHHH | soluble
MSLQRFNQRVWMMFGEFNLIDKYFSNRQAQRKDVHLALGDDCAIVKVPENSRVAISTDTLVAGTHFLAQANPAWVAHKALASNISDLAAMGATPAWVSLALTLPEIDDAWLTPFCDAFFELAKYYNVQLIGGDTTKGPLSITLTVQGFLPKEQAMLRSGAKVGDWLYVTGDLGDSQAGLDVILDPEKRHLPFADILEQRHYLSTPRIVAGQALVHLASSAIDISDGLIADLQHILRRSNVGASIDVSLLPLSKELLQFVDSVTSAQQYALTSGEEYELCFTIPEENRGSLENALAHCGTKVTCIGQIRPAGTFELHNQGKKLDWQLAGYDHFKVKAEGHHHHHH | soluble
MSLQRPVMLLSDDDSEVRRLVYDSLDRLGCEMEEPDNGEQALAAFRRIQPEIVLLDLAMTQADAFELCASLHGARGGERVSILAVAGRGDLEGVRRAIDAGATDFLIHPVDVEMLGLRLSCGRRSAQTRERLSRNEERNRGLIKGIPHLVLQISKEGTVLDFEAPRDFDLRQFPDGLRGRRIQDVFFADAPYVIVRCIERVIETAESQVLEHNVRIGNDIHVYETRILPNAEGEPTVVMRDVTERRKMEKEGHHHHHH | soluble
MSLRCPTCQYNGTRVVDSRPADDGNSIRRRRECEKCGFRFTTFEKVEESPLIVVKKDGAREEFAREKVRRGLIRACEKRPVSAEQIEEIVNEVERELRNIGDSEIASDLIGEKVMNKLANLDEVAYVRFASVYRQFKDISVFVEELKDLMEKNKEGHHHHHH | soluble
MSLRDYAEIAASGILRAVTEYNSISFYADGDTVSGFHYELLHAFAHSKGLKPEITPEMSFSKRLEDVQKGTYDILANSTVVTTEYKDSLLFTRPIILNKQVLVQRKPEKENDSLYIHSQLELARKTLHLVKNSPAILRIHNLSNEIGDTIYIKEVEKYGQEQLLAMVAHGDIDYAVCDESIAKASINDFPQLDIETAISFSQFYSWGVSKHSPILLDSLNSWLNDYVKTPAFKLLRKKYYNNEGHHHHHH | soluble
MSLRFDGKVAIVTGAGGGLGKTYALELAKRGCKVVVNDLGGDRHGTSSSSSMADKVVQEIKSAGGQAVANYDSVEFGDKIVKTAIDNFGRIDIVINNAGILRDVSFLKMTELDWDLIFKVHVKGAYAVTKAAWPYMRDQKYGRIVVTSSNAGVHGNFGQANYAAAKSALIGLSNSLAQEGAKYNILANTLVPTAGSRLTETVMPQNLVDALKPDYVTPLVTYMVHDSFEESGKVFEAGAGWYGTIQYYKSKGKVISHASADDIAKNWSTITNMNGAEYIGTITEQSARLVSILEEHEASSGSSSASSGASSGGAFPSNIRSSALFQEMADGVKADPTAVKTLKSIVLYIITDGKNELGKFTLDFKSASPSVYLGDVKNGEKANATVTVADSDFVDIAAGKLNAQKAFMSGKLKVKGNVMLLQKLQTVLEKAKKSKL | not soluble
MSLRHLQSTIHPELDHLDDKIIFQRNAARAIVLDGEDVLLLYTERYHDYTLPGGGIDEGEDVIAGLVRELEEETGAQNIHSIKPFGIFEEFRPWYKDDADVMHMISYCYTCKIDRELGETAYEDYEVKNGMRPVWMNVHEAIAHNEKTMAESPKKGMSIERETFLLHLIAKELLEGHHHHHH | soluble
MSLRHVIREVRADLIASPVQTGFQDATRKVETVGMCVIRVNTDQGLTGIGVTYHEVGGEAIKEMIERYYGPKLIGRDPFETEEIWEELFHYARGVGRKGLSFCALSAVDIALWDLKGKIMDLPLYRLLGGNKKKVPVYASGGWTSYDDDALVAEALEMVRRGYKMIKLKVGVEGGRNIRRDTQRCRKVREAIGPDIGFMVDANNAFHSGDAVRLANEIREYDILFFEEPVFADDIPGLRRFRQGTDIPLGTGEHEYTRYGARDLILGEAVDYLQMDVTRCGGITEMLKVIALSQAWNLAFAPHAMEHIHMHLVSAAANGAFLERLFLFEDITAMVFKDAPVPEEGILTIPDKPGLGLELNSEFLREGHHHHHH | soluble
MSLRHVRERGVLVATLQRLAEQDPLTGIANRQGFQALLNARLAENEGRGVALGHLDLDNFRHVNDALGHQSGDRLILQVVARLKHQLEAGDQLARLGSDEFALLIDTRRDANRAEWIAERIVEALAEPYWIDGESLLLGCSLGIAHARAQSGADPLMWHAHIAMRQAKGSQGCTFHVFNERINRNARSLADLESELRRALRRDELELHYQPRLNLADGRIVGLEALVRWRHAERGLLPPSEFVPLAEQSGLIVPLGYWVISRALRDMQALCERGLEPLHMAVNLSFRQFQDSQLLATLSRLILEHGVDARWLEFELTETAVMRRNEVVRQTMDALGRLGVRFSLDDFGTGFSSFVHLNSLPITLLKVDRSFVAEMEMREENRKLVHAMINLAHNLNLEVVAEGVESEEQLTLLRGFGCDQVQGFLVSRPLPIGELMAYLLQAPGRQLEGEGHHHHHH | soluble
MSLRLEGVVVPLITPFLEDYSIDKEGLKWLVSYLSENGVNGIFVNSSVGEFASLTLDEMKLVTKIALDSRKSYSTLIFAGASTNFTEETIKLAKDFKDMGVDAIVVMAPYFFKVREKELLDHFSMIAEKVDLPIIIYNIPLFTGIDIPISVYKMLVSQHSNIIGTKVTLDSLIFFKKLISEIREIRKDFSILTGFDEYLLPLLYMGGNGGVMGLANAIPKLHLKVYESWKNGNLSDANKYWRNVLNLTDIYDYCNSYTASIKLLLKVLNMPIKNVVRPPLSICEEESKIRGMIKDLSSFLTNSEGHHHHHH | soluble
MSLRLHFHTQEMPMPALLYKADPARAERWRVLFAEHAPDIEWRVWPDIGDPADIHYLGAWLAPDDLQDLLPNLKVLFALSAGVDQLDLSRIPKSLPVVRLLDPGISHGMCEYASFAVLSLHREMLRYRQQQVEGLWKAQPLIPANKRRVGVMGLGLQAQHILSSLKPFGFQLSGWARSAHQVEGVTCYAGEEQLSEFLGQCDILLCVLPLTAQTEGILNRQLFERLPEGAALINMGRGGHLVEADLLEALDSGQLSAAVLDVLQQEPAPADHPFWQHPKILLTPHVAAMTQPESAFPGLLDNIRRFERGEAMQGQVNRGEGHHHHHH | soluble
MSLRMIGKVLELLNCKETEREINRRKFSICDDVNFILNLPIGYLKDVISPLENYLSKHMTNNFSRLTRVVPNDYEDTQLHFSKFFLNLYSSAISEIPRFNILTSLVILDEYRMMPDKALIAAADELARNGINAIFSTSTPSVFFEEEIVSRFRNRRVVSISIVNEYGQAVEGRDCVKKGEGYYQCRGSYEVIELIEDFDIRDLDYEIIKGEEVFKVKEPFTLFVNSWEKALRLYRKLREERNTEVCLLNSSDECKVTITPKIMPTRFNVVSEISSLPTIVARSGIINDKDKIYVWIDRDNYDTVTESTLNLLSNIKVCLKHPFGCNGKMGYANKTVLKPNIDERLIKRLSEISHLMDRREFEKVTEVFSDFVTVDLFTDKEKITTVPPEFVYENKKKILYYGNSCVYTYFTDGEKCSKIVYNWLEGGGVSWLKRNLARAYKNYVEEEGKKKVFLGLKARDVEEWIEGHHHHHH | not soluble
MSLRNKIKSWLLNASEYDFTDIKEGIRLHLNESPFEPPQFIIDAVKMYLSKGNRYQHPDLLEKYRELAAEYSKVEPENIYPSVGADGSIRAIFYNLVEPGDTILTNYPSYSMYSVYSSVRGTKVIKVNLKEDNEWWKENTDDLLAQAEKVELVIIDDPNNPTGSPMLNGKKELIGQLAENTKGFVVIDEAYYEFGGYTVSPYIYDYPNVLVVRTLSKAFSLASYRLGYTIANEEIVKALMKSSTPFDIPLPSLIAGITALENPSYIKDVVNIVNRNREILYQGLKNLNLKVYKSITNFLLIKDNRNLQEMLMRHGIAIRKLYDNFYRITIGTEDQCKMVIDKLGEELENSNSEGHHHHHH | soluble
MSLRPKMADIARMAGVDISTVSRALAGSPRVTKETRALIDQIVRDTGYVLNEAARNLRDGRANQVLVIVSDIAAPFYSDVVQGIVETLAERGINVLLGVTLRQAKREAKLGKQLLTGVVDGIITVTGSVPKPILNMQGFDRKVVAISRPVPHEGVTCVTIDNYAAAKEVMAHLYAMGHRRIVHIGGPNHSETYRDRSAAYVDFMRDHGLVELTNVRSTDSFNDDAESGFEIMKSMLNDGSRPTAVFCATDELAISAMAAARQANRNIPGDVSFFGFDDLKLAGLMHPPLSTVSVPRFEMGRRGAEELFRQIYKGEMPSTKIVLEHRLVLRDSVAKEGHHHHHH | not soluble
MSLRPTEYIDLHCHLLPGLDDGPQQLAQAVEMARQAVADGIHYVLATPHHLDRRYQNTGLVVERSVAELQAELKRQQIPLTVFAGQEVHLRDDLATALPHLLGIDVGRRYLLLELPHEQVPNYVAQVIFELLQQGTTPVIAHPERNAQIMAQPERLYDLVQQGCLAQLTAGSLVGQFGRAVKSTALELVECGLVQVIASDAHLMARRGFMMRAGYQALARLDSTNPASFAVNARLLLNGDPVVLGEVLRPNQRRKFWLFEGHHHHHH | not soluble

Reference: the DeepSol protein solubility set
